Experimental data as given in PMC1890005 (The Journal of biological chemistry, 2006).

Target: T1, σ^C4 domain of M. tuberculosis σ^C (M. tuberculosis)
T1 chain: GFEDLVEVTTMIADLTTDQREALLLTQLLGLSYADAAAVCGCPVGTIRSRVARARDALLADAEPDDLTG
Assay: SPR

B1: σ^C2 domain of M. tuberculosis σ^C (domain or fragment)
chain: MTATASDDEAVTALALSAAKGNGRALEAFIKATQQDVWRFVAYLSDVGSADDLTQETFLRAIGAIPRFSARSSARTWLLAIARHVVADHIRHVRSRPRTTRGARPEHLIDGD
In the case of B1, the Kd is reported as 1810 ± 30 nM.
